The record followed here is PMC4227788, “Architecture and ssDNA interaction of the Timeless-Tipin-RPA complex” (Nucleic Acids Research, 2014).

One data set deals with T1, Tim-Tipin complex (mouse, UniProt Q9R1X4;Q91WA1 1-1134;1-278).
T1 sequence 1: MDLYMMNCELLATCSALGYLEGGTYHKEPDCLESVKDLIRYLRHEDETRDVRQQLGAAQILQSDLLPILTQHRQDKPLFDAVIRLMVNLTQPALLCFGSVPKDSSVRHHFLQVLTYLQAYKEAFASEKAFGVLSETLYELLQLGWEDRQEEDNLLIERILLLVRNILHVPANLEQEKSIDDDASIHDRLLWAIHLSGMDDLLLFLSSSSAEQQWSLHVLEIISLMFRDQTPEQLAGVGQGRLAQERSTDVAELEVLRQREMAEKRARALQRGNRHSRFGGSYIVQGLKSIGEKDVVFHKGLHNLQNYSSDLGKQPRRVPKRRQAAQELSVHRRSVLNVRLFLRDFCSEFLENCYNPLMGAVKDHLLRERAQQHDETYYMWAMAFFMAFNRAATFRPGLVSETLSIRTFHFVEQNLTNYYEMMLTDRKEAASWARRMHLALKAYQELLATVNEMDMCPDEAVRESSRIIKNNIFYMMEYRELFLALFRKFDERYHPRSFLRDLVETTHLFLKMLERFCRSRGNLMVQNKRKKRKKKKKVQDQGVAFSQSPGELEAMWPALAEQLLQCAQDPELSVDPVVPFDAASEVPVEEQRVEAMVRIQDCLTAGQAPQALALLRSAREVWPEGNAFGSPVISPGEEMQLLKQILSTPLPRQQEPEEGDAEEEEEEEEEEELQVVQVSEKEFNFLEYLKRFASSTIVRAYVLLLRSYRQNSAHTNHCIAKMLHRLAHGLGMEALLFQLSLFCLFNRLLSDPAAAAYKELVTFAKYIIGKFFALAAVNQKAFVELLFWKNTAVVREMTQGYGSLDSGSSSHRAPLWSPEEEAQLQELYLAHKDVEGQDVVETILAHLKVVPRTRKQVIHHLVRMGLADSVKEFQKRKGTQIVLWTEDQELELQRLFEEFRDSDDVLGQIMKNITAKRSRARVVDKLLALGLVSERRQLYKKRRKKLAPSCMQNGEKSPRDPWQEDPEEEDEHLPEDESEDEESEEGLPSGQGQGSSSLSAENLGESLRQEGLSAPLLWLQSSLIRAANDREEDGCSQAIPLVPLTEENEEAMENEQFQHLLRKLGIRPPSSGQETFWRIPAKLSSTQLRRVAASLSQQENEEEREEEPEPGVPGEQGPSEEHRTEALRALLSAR
T1 sequence 2: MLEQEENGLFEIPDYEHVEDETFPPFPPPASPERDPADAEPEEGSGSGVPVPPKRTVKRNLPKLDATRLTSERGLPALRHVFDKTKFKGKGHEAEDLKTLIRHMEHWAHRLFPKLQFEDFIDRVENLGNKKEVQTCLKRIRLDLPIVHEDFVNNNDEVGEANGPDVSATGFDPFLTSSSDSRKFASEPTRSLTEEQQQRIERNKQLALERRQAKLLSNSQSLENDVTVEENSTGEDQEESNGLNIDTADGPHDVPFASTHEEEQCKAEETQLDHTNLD
As to the kind of experiment: fluorescence anisotropy; Hill n = 1.2 ± 0.2; 30 C; 20 mM Hepes pH 7.5, 125 mM NaCl, 2 mM DTT, 0.01 mM zinc acetate (Buffer A); EMSA 15 min RT + 15 min 4 C; FA 15 min 30 C, 10 nM DNA. The settings on record: protein: recombinant; tags: His (Tim) and His-GST (Tipin), cleaved with 3C; copies: 1;1; label: 5'-FAM.

The target in data set [1] is RPA70/32/14 (RPA70ABC/32D-WH/14) (mouse, UniProt Q8VEE4;Q99KL9;Q9CQ71 190-623;43-270;1-121). As to the kind of experiment: EMSA; 1 RPA with excess DNA, up to 2 RPA at substoichiometric DNA; 20 mM Hepes pH 7.5, 125 mM NaCl, 2 mM DTT, 0.01 mM zinc acetate (Buffer A); EMSA 15 min RT + 15 min 4 C; FA 15 min 30 C, 10 nM DNA. The following applies: protein: recombinant; tags: His; copies: 1;1;1; label: 5'-FAM.
Sequence of RPA70/32/14 (RPA70ABC/32D-WH/14) (Q8VEE4 190-623, chain 1 of 3): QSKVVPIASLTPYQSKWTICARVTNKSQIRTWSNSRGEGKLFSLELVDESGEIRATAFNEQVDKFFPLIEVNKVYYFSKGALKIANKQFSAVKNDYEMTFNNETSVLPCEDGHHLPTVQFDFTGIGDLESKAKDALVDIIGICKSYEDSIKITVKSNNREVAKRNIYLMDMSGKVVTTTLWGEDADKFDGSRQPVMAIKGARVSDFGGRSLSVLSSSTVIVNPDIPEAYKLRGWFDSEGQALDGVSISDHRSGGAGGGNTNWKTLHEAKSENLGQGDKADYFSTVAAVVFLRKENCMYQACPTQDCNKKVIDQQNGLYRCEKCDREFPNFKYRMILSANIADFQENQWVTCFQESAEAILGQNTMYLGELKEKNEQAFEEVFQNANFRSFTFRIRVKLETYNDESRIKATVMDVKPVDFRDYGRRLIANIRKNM
Sequence of RPA70/32/14 (RPA70ABC/32D-WH/14) (chain, as listed by the source, chain 2 of 3): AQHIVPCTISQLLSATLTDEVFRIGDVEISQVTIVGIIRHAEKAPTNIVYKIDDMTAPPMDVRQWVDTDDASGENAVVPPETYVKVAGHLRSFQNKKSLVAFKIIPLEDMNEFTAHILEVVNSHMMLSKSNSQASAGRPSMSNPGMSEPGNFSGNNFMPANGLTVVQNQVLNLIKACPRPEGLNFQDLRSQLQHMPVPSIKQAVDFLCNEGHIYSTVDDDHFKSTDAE
Sequence of RPA70/32/14 (RPA70ABC/32D-WH/14) (Q9CQ71 whole entry, chain 3 of 3): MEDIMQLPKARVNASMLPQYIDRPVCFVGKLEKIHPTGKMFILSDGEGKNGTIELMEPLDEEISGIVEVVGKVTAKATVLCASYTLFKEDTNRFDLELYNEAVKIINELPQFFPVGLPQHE

B1: 30 nt FAM ssDNA (ssDNA)
DNA: ACGCTGCCGAATTCTACCAGTGCCTTGCTA
Turning to B1, the Kd with Tim-Tipin complex is 1700 ± 200 nM. In addition, in data set [1], the binding result is recorded as “binds”.
